# Measured values published in publication PMC9127186, “Molecular Basis Underlying Hepatobiliary and Renal Excretion of Phenolic Acids of Salvia miltiorrhiza Roots (Danshen)” (Frontiers in Pharmacology, 2022).
# Where a SMILES comes first, the peptide text is derived from it. [ ]: non-standard residue; d: D form. Sar = CNCC(=O)O
# T1: rat Pept2 (Rattus norvegicus, UniProt Q63424)
# T1 sequence (Q63424 1-729): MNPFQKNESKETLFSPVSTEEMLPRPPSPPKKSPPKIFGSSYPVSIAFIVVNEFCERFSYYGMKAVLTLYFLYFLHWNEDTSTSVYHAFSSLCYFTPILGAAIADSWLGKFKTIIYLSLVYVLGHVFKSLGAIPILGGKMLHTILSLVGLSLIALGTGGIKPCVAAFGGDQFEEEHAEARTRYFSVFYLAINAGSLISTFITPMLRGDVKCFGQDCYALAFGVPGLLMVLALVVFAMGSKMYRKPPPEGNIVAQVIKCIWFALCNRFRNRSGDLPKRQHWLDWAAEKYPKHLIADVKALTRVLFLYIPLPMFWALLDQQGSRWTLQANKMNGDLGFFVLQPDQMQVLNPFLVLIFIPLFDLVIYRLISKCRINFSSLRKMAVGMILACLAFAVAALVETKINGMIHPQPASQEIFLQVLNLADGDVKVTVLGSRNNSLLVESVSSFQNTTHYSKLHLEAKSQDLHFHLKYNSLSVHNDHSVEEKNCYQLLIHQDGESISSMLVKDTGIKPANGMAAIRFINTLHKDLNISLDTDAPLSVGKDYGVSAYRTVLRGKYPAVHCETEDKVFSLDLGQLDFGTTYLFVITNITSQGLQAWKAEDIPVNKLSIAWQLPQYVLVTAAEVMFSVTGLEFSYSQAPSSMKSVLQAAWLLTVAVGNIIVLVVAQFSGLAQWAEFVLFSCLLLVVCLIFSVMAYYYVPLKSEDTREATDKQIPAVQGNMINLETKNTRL
# T2: human PEPT2 (Homo sapiens, UniProt Q16348)
# T2 sequence (Q16348 1-729): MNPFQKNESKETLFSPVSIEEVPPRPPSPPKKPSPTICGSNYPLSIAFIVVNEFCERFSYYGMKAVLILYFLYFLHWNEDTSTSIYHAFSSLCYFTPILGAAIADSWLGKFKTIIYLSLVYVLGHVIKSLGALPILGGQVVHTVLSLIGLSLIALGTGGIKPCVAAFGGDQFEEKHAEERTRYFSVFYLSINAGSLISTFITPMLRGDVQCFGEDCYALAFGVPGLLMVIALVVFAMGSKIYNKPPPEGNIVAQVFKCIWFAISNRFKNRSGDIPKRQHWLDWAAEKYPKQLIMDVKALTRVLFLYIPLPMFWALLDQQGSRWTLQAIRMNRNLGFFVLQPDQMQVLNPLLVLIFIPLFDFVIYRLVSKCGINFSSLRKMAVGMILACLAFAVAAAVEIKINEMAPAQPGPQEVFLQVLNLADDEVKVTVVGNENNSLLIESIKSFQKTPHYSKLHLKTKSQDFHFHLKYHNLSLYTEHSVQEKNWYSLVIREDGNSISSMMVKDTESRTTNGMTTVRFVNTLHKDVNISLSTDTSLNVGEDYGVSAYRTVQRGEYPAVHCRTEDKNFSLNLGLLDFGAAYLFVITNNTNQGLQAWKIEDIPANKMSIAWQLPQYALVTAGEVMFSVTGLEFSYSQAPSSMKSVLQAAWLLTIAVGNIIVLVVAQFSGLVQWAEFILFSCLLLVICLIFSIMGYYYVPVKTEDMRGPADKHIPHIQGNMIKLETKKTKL
# T3: human PEPT1 (Homo sapiens, UniProt P46059)
# T3 sequence (P46059 1-708): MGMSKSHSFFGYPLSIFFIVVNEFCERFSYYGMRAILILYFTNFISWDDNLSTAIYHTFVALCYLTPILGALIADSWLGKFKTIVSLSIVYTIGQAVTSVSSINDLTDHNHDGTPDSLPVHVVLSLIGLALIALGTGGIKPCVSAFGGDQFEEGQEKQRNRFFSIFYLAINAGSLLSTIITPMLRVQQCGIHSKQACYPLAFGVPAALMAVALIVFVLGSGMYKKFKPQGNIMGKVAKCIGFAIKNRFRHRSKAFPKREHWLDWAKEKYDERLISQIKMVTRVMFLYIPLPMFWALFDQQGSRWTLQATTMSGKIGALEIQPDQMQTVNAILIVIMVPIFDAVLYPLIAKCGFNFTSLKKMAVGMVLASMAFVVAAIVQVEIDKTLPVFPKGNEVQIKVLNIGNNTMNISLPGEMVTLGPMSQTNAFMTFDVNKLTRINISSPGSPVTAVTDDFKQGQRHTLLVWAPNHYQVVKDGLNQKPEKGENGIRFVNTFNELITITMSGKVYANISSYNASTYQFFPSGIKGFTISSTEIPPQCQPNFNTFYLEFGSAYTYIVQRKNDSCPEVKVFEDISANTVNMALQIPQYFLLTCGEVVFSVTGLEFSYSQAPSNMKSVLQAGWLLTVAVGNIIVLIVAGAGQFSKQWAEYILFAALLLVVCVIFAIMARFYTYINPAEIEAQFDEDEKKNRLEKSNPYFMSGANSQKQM
# T4: rat Pept1 (Rattus norvegicus, UniProt P51574)
# T4 sequence (P51574 1-710): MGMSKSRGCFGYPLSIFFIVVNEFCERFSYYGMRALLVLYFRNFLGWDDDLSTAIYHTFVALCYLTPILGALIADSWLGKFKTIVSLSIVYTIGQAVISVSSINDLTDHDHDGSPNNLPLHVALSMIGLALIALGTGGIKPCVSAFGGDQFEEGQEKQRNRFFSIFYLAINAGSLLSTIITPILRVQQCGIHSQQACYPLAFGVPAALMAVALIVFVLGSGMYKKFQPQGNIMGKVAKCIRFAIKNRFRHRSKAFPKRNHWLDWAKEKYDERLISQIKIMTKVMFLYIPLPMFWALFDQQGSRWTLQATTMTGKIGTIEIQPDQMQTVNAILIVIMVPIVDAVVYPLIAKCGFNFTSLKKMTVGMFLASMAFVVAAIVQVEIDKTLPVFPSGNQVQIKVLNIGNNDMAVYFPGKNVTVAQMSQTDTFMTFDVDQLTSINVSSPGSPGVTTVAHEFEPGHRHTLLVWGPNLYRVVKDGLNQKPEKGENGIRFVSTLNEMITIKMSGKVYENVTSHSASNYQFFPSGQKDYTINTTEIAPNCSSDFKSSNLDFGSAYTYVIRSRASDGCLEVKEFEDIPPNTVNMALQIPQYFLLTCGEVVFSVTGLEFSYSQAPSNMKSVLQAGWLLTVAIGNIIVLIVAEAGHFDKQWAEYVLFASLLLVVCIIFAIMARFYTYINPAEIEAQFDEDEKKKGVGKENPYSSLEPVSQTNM
# What was measured:
# rat Pept2 = molecular target: T1, rat Pept2; test: Cellular transport assay, HEK-293 cells expressing rat Pept2; details: positive substrate 20 μM, 10 min; rat Pept2
# human PEPT2 = molecular target: T2, human PEPT2; test: Cellular transport assay, HEK-293 cells expressing human PEPT2; details: positive substrate 20 μM, 10 min; human PEPT2
# human PEPT1 = molecular target: T3, human PEPT1; test: Cellular transport assay, HEK-293 cells expressing human PEPT1; details: positive substrate 20 μM, 10 min; human transporter printed PEPE1
# rat Pept1 = molecular target: T4, rat Pept1; test: Cellular transport assay, HEK-293 cells expressing rat Pept1; details: positive substrate 20 μM, 10 min; rat Pept1
# [1] = substrate: O=C(O)Cc1c(/C=C/C(=O)OC(Cc2ccc(O)c(O)c2)C(=O)O)ccc(O)c1O; test: cells, lysate or membranes named; details: 5 min incubation, concentrations in Table 1, 37.0 °C
# [2] = substrate: O=C(/C=C/c1ccc(O)c2c1[C@H](C(=O)O)[C@@H](c1ccc(O)c(O)c1)O2)O[C@H](Cc1ccc(O)c(O)c1)C(=O)O; test: cells, lysate or membranes named; details: 5 min incubation, concentrations in Table 1, 37.0 °C
# [3] = substrate: O=C(/C=C/c1ccc(O)c(O)c1)O[C@H](Cc1ccc(O)c(O)c1)C(=O)O; test: cells, lysate or membranes named; details: 5 min incubation, concentrations in Table 1, 37.0 °C
# [4] = substrate: O=C(/C=C/c1ccc(O)c(O)c1/C=C/c1ccc(O)c(O)c1)O[C@H](Cc1ccc(O)c(O)c1)C(=O)O; test: cells, lysate or membranes named; details: other: rat hepatic sinusoidal uptake Oatp1b2; 5 min incubation, concentrations in Table 1; 37.0 °C
# [5] = other: human hepatic sinusoidal uptake OATP1B1
# [6] = other: rat hepatic sinusoidal uptake Oatp1b2
molecule,measurement,setting,value
"CN(CC(=O)O)C(=O)CN [GS, glycylsarcosine, reference compound] (H-Gly-[Sar]-OH)","TransportTC/TransportMC ratio, positive substrate",rat Pept2,101 ± 19 (GS)
same,"TransportTC/TransportMC ratio, positive substrate",human PEPT2,360 ± 49 (GS)
same,"TransportTC/TransportMC ratio, positive substrate",human PEPT1,126 ± 31 (GS)
same,"TransportTC/TransportMC ratio, positive substrate",rat Pept1,90.1 ± 10.4 (GS)
human OATP1B1 (Homo sapiens) (protein) MDQNQHLNKTAEAQPSENKKTRYCNGLKMFLAALSLSFIAKTLGAIIMKSSIIHIERRFEISSSLVGFIDGSFEIGNLLVIVFVSYFGSKLHRPKLIGIGCFIMGIGGVLTALPHFFMGYYRYSKETNINSSENSTSTLSTCLINQILSLNRASPEIVGKGCLKESGSYMWIYVFMGNMLRGIGETPIVPLGLSYIDDFAKEGHSSLYLGILNAIAMIGPIIGFTLGSLFSKMYVDIGYVDLSTIRITPTDSRWVGAWWLNFLVSGLFSIISSIPFFFLPQTPNKPQKERKASLSLHVLETNDEKDQTANLTNQGKNITKNVTGFFQSFKSILTNPLYVMFVLLTLLQVSSYIGAFTYVFKYVEQQYGQPSSKANILLGVITIPIFASGMFLGGYIIKKFKLNTVGIAKFSCFTAVMSLSFYLLYFFILCENKSVAGLTMTYDGNNPVTSHRDVPLSYCNSDCNCDESQWEPVCGNNGITYISPCLAGCKSSSGNKKPIVFYNCSCLEVTGLQNRNYSAHLGECPRDDACTRKFYFFVAIQVLNLFFSALGGTSHVMLIVKIVQPELKSLALGFHSMVIRALGGILAPIYFGALIDTTCIKWSTNNCGTRGSCRTYNSTSFSRVYLGLSSMLRVSSLVLYIILIYAMKKKYQEKDINASENGSVMDEANLESLNKNKHFVPSAGADSETHC,Vmax,[1]; [5],8.93e-05 µmol/min/mg
same,Vmax/Km,[1]; [5],0.22 µL/min/mg
same,Vmax,[2]; [5],2.7e-05 µmol/min/mg
same,Vmax/Km,[2]; [5],0.06 µL/min/mg
same,Vmax,[3]; [5],9.81e-05 µmol/min/mg
same,Vmax/Km,[3]; [5],0.07 µL/min/mg
rat Oatp1b2 (Rattus norvegicus) (protein) MDHTQQSRKAAEAQPSRSKQTRFCDGFKLFLAALSFSYICKALGGVVMKSSITQIERRFDIPSSISGLIDGGFEIGNLLVIVFVSYFGSKLHRPKLIGIGCFIMGIGSILTALPHFFMGYYKYAKENDIGSLGNSTLTCFINQMTSPTGPSPEIVEKGCEKGLKSHMWIYVLMGNMLRGIGETPIVPLGISYLDDFAKEGHTSMHLGTLHTIAMIGPILGFIMSSVFAKIYVDVGYVDLNSVRITPNDARWVGAWWLSFIVNGLLCITSSIPFFFLPKIPKRSQEERKNSVSLHAPKTDEEKKHMTNLTKQEEQDPSNMTGFLRSLRSILTNEIYVIFLILTLLQVSGFIGSFTYLFKFIEQQFGRTASQANFLLGIITIPTMATAMFLGGYIVKKFKLTSVGIAKFVFFTSSVAYAFQFLYFPLLCENKPFAGLTLTYDGMNPVDSHIDVPLSYCNSDCSCDKNQWEPICGENGVTYISPCLAGCKSFRGDKKPNNTEFYDCSCISNSGNNSAHLGECPRYKCKTNYYFYIILQVTVSFFTAMGSPSLILILMKSVQPELKSLAMGFHSLIIRALGGILAPIYYGAFIDRTCIKWSVTSCGKRGACRLYNSRLFGFSYLGLNLALKTPPLFLYVVLIYFTKRKYKRNDNKTLENGRQFTDEGNPDSVNKNGYYCVPYDEQSNETPL,Vmax,[4],1.92e-05 µmol/min/mg
same,Vmax/Km,[4],0.38 µL/min/mg
same,Vmax,[1]; [6],0.000572 µmol/min/mg
same,Vmax/Km,[1]; [6],1.23 µL/min/mg
same,Vmax,[2]; [6],3.77e-05 µmol/min/mg
same,Vmax/Km,[2]; [6],0.41 µL/min/mg
same,Vmax,[3]; [6],0.000159 µmol/min/mg
same,Vmax/Km,[3]; [6],0.08 µL/min/mg
